The data set in a line: confocal FL-CD19-GFP, WGA Pearson colocalisation, Nalm6 and 697. The following applies: glycan changed form; control: DMSO.

For one protein, localisation_or_trafficking results are on record in publication PMC6189457.

B1: CD19: swainsonine (protein)
parent chain: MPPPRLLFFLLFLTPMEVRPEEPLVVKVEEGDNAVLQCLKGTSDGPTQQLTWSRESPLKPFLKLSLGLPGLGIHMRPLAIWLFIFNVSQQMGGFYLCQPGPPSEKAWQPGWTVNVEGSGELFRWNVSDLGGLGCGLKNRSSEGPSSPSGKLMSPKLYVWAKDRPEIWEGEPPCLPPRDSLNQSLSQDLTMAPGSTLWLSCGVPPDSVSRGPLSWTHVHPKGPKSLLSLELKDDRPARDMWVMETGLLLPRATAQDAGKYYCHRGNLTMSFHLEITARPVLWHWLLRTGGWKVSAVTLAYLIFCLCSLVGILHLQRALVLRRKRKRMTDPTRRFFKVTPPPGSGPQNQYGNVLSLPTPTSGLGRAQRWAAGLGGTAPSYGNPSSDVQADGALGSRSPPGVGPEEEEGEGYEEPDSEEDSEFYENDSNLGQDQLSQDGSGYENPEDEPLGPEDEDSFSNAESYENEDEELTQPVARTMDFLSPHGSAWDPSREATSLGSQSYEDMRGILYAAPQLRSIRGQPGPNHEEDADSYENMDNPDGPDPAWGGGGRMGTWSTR
In the case of B1, the localisation_or_trafficking result is on record as “no change”.
